Experimental findings from patent publication US20240141072A1 (published 2024) are described below.

The target in test [1] is T1, 51G2 anti-DLL3 trispecific protein (CHO expressed, purified) (biotinylated).
T1 construct: also called 51G02
The test can be described thus: Octet BLI, biotinylated trispecific on streptavidin tips. (In general: Biolayer interferometry detects binding as a change in optical thickness at a sensor tip.)

Test [2] concerns the target 51G10 anti-DLL3 trispecific protein (CHO expressed, purified) (biotinylated). The description is as above.
Test [3] addresses DH43 anti-DLL3 trispecific protein. The test can be described thus: Octet BLI, single 60 nM.
Test [4] deals with DH6 anti-DLL3 trispecific protein. Briefly: Octet BLI, single 60 nM.
Chain of DH6 anti-DLL3 trispecific protein (chain, as listed by the source): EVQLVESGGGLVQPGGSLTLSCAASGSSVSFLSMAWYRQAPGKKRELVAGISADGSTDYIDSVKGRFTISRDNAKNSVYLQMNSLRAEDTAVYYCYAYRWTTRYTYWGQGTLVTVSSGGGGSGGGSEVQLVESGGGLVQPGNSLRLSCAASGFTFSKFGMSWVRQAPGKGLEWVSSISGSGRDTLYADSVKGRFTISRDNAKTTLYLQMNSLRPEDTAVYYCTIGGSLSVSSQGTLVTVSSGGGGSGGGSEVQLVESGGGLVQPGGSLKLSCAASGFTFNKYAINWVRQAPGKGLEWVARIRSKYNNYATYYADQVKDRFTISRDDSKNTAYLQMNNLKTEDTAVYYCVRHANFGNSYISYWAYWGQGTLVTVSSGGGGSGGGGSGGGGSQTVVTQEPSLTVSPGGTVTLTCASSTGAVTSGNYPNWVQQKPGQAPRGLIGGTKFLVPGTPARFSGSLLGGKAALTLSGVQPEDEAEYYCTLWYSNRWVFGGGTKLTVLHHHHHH
Test [5] addresses T2, DLL3 targeting trispecific protein containing 52D04, anti-CD3:anti-ALB:anti-DLL3 (CAT) configuration.
T2 construct: also called DLL3-targeting TriTAC
Briefly: flow cytometry on NCI-H82, SHP77, DMS53, NCI-H2171 cells.

The target of test [6] is T3, DLL3 targeting trispecific protein containing 52D04, anti-DLL3:anti-ALB:anti-CD3 (TAC) configuration.
T3 construct: also called DLL3-targeting TriTAC
T3 sequence (chain, as listed by the source): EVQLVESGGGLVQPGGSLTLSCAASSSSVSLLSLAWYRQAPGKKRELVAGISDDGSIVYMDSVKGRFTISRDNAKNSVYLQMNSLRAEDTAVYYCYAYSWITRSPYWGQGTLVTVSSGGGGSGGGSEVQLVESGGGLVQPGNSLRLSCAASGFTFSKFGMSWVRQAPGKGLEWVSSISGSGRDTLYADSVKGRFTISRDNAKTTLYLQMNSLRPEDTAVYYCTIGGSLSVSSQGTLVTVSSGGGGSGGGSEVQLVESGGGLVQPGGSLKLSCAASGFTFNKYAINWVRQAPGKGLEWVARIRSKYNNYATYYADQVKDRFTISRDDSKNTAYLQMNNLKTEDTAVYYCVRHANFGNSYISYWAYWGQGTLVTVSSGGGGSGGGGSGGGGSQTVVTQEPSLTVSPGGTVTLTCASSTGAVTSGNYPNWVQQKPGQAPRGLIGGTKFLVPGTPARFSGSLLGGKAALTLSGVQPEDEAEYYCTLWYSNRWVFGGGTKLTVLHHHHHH
The description is as above.

T2 sequence (chain, as listed by the source): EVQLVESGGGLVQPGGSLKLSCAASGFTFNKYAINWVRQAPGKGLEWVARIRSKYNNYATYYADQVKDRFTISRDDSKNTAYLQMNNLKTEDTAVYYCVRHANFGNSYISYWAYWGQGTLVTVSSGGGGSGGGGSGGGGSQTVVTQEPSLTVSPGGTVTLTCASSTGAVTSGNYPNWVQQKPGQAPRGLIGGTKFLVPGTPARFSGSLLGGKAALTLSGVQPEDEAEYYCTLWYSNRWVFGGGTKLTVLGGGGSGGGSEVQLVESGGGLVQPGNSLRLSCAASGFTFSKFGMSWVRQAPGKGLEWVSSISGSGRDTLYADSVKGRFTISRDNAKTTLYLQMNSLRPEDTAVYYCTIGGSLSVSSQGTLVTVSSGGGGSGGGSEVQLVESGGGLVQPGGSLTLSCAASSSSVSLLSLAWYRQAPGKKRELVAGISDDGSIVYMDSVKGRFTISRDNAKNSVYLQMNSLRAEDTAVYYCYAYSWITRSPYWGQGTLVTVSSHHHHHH
T1 sequence (chain, as listed by the source): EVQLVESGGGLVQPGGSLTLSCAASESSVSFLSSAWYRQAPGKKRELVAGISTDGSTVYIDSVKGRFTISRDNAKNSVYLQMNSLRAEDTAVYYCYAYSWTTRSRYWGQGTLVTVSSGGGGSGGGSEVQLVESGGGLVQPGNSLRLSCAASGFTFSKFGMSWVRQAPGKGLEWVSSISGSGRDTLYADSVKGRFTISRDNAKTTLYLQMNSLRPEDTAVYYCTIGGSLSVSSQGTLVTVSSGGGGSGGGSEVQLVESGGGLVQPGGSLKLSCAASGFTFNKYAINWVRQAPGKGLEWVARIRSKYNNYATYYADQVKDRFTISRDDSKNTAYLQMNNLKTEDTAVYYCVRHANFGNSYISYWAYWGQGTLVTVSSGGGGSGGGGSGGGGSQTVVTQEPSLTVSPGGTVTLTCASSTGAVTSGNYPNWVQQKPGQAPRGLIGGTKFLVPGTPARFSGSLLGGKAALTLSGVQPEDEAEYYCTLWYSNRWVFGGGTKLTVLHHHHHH
Chain of DH43 anti-DLL3 trispecific protein (chain, as listed by the source): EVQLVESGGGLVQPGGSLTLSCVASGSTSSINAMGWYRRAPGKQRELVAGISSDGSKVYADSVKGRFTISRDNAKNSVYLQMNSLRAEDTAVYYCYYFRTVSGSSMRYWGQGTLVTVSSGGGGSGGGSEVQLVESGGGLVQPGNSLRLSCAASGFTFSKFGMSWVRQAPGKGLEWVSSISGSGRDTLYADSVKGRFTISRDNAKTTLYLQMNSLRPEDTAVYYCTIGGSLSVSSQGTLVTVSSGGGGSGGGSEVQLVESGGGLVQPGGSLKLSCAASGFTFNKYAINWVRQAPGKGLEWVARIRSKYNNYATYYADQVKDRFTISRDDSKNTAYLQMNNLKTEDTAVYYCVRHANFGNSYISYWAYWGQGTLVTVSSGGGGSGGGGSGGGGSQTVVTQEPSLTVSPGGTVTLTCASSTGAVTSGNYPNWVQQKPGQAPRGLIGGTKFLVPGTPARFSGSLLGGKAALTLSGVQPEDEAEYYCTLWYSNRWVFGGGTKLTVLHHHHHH
Chain of 51G10 anti-DLL3 trispecific protein (CHO expressed, purified) (biotinylated) (chain, as listed by the source): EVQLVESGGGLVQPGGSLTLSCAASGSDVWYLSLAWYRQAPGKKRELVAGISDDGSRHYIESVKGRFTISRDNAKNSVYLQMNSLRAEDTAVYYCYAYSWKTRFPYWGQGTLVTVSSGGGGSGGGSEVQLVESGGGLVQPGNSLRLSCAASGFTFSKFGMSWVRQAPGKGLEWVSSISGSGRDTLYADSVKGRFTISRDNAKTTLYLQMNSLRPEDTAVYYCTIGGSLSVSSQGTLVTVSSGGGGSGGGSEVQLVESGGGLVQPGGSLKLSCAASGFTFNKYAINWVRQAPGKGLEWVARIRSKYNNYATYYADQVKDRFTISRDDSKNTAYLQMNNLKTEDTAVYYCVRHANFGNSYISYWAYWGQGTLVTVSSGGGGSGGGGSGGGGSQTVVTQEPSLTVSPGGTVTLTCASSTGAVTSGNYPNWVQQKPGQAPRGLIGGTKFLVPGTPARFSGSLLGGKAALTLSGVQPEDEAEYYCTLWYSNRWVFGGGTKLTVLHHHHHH

B1: cynomolgus DLL3 (ligand)
chain: AGVFELQIHSFGPGPGGAPRSPYSARGPCRLFFRVCLKPGLSEEAAESPCALGAALSARGPVYTEQPEAPAPDLPLPNGLLQVPFRDAWPGTFSLIIETWREELGDQIGGPAWSLLARVTRRRRLAAGGPWAGDIQRAGAWELRFSYRARCELPAVGTACTRLCRPRSASRCGPGLRPCAPLEDECEAPPVCRAGCSLEHGFCEQPGECRCLEGWTGPLCMVPVSTSSCLGLRGPSSTTTGCLVPGPGPCDGNPCANGGSCSETPGSFECTCPRGFYGLRCEVSGVTCADGPCFNGGLCVGGADPDSAYICHCPPGFQGSNCEKRVDRCSLQPCRNGGLCLDLGHALRCRCRAGFAGPRCEHDLNDCAGRACANGGTCVEGGGAHRCSCALGFGGRDCRERADPCAARPCAHGGRCYAHFSGLVCACAPGYMGARCEFPVHPDGVSALPAAPPGLRPGDPQRYP
notes: also called cyDLL3
For B1, the Kd (as a rule, the free concentration of one partner at which half of the binding sites on the other are occupied at equilibrium, for simple one-to-one binding) in test [1] was 1.4 to 3.4 nM; in test [2] it was 1.4 to 3.4 nM; in test [3], 8.5 nM; in test [4], 10 nM.

B2: human DLL3 on DLL3-expressing tumor cell lines (ligand)
chain: AGVFELQIHSFGPGPGPGAPRSPCSARLPCRLFFRVCLKPGLSEEAAESPCALGAALSARGPVYTEQPGAPAPDLPLPDGLLQVPFRDAWPGTFSFIIETWREELGDQIGGPAWSLLARVAGRRRLAAGGPWARDIQRAGAWELRFSYRARCEPPAVGTACTRLCRPRSAPSRCGPGLRPCAPLEDECEAPLVCRAGCSPEHGFCEQPGECRCLEGWTGPLCTVPVSTSSCLSPRGPSSATTGCLVPGPGPCDGNPCANGGSCSETPRSFECTCPRGFYGLRCEVSGVTCADGPCFNGGLCVGGADPDSAYICHCPPGFQGSNCEKRVDRCSLQPCRNGGLCLDLGHALRCRCRAGFAGPRCEHDLDDCAGRACANGGTCVEGGGAHRCSCALGFGGRDCRERADPCAARPCAHGGRCYAHFSGLVCACAPGYMGARCEFPVHPDGASALPAAPPGLRPGDPQRYLLPPALGLLVAAGVAGAALLLVHVRRRGHSQDAGSRLLAGTPEPSVHALPDALNNLRTQEGSGDGPSSSVDWNRPEDVDPQGIYVISAPSIYAREVATPLFPPLHTGRAGQRQHLLFPYPSSILSVK
notes: endogenous DLL3 of human cancer cell lines
Consider B2, for which the binding result in test [5] and in test [6] was “binds” throughout.
